{
  "source": "patent US20050260683A1",
  "about": "“Methods for diagnosing and treating pre-term labor” (University of Hawaii, priority 2002, published 2005)",
  "assay_type_in_all_cases": "cell-based, human",
  "key": {"[1]": {"test_system": "IL-8 gene expression in amniotic epithelial (WISH) cells", "assay": "rhPBEF treatment of WISH cells, IL-8 gene expression by Northern analysis", "details": "rhPBEF 100 ng/ml, 4 h", "protocol": "Total RNA was extracted (see Chomzynski and Sacchi, supra) and MRNA prepared as previously described (see Aviv and Leder, supra). Samples of MRNA (10-20 μg) were electrophoresed, and the RNA transferred to a nylon membrane (Magna Graph, MSI, Westborough, Mass.) as previously described (see Ognjanovic et al., supra). The cDNA probes were labeled using the Random Primed DNA labeling kit and following the manufacturer's instructions (Invitrogen, Carlsbad, Calif.). The filters were hybridized at 68° C. for 1 h using Express Hyb solution (Clontech, Palo Alto, Calif., USA). A final wash stringency of 0.1×SSC, 0.1% SDS was performed at 50° C. Filters were deprobed in 0.5% SDS for 10 min at 100° C. and re-hybridized sequentially with cDNA probes to PBEF, IL-6 and IL-8 and finally with a human glyceraldehyde-3 phosphate dehydrogenase (G3PDH) cDNA probe (Clontech), as an internal standard. The Northern blot was quantitated with a Phospholmager (Amersham Pharmacia Biotech, Piscataway, N.Y.), using the G3PDH value for each sample to standardize sample loading. Results were expressed as a ratio to G3PDH. […]\nThe amnion-like epithelial (WISH) cells were obtained from American Type Culture Collection (ATCC# CCL-25) (ATCC, Manassas, Va.). […] The concentration of rhPBEF was determined using the BioRad protein assay and 1, 10 and 100 ng/ml was added to the cells for 4 and 24 h. […]"}, "[2]": {"test_system": "key mediators of labor in fetal membrane explants", "assay": "rhPBEF treatment of fetal membrane explants, gene chip analysis (Affymetrix)", "details": "rhPBEF 100 ng/ml, 4 hours", "protocol": "Fetal membranes from three patients were cut into several 3×3 cm explants. One explant was used to check for infection. Another explant was treated with 100 ng/ml rhPBEF in minimal media for 4 hours, an adjacent explant was used as a control and was incubated in minimal media only for the same period. At the end of this time, total RNA was extracted using the RNeasy Maxi kit (Qiagen Inc., Valencia, Calif.). These RNAs were run in pairs (explants treated and controls from each of the patients), were reverse-transcribed and the resulting cDNAs/cRNAs labeled with tracking fluorescent dyes and hybridized to DNA microchips (Affymetrix Inc.) containing 22,000 gene transcripts. The binding of the fluorescent fragments was proportional to the abundance of the gene in the original samples. Therefore changes in gene expression result in signal differences. […] The Affymetrix system has numerous controls built into the methodology in order to minimize false positive results."}, "[3]": {"test_system": "IL-6 gene expression in amniotic epithelial (WISH) cells", "assay": "rhPBEF treatment of WISH cells, IL-6 gene expression by Northern analysis", "details": "for increase in IL-6 gene expression: 4 h, vs control", "protocol": "(§1) Total RNA was extracted (see Chomzynski and Sacchi, supra) and MRNA prepared as previously described (see Aviv and Leder, supra). Samples of MRNA (10-20 μg) were electrophoresed, and the RNA transferred to a nylon membrane (Magna Graph, MSI, Westborough, Mass.) as previously described (see Ognjanovic et al., supra). The cDNA probes were labeled using the Random Primed DNA labeling kit and following the manufacturer's instructions (Invitrogen, Carlsbad, Calif.). The filters were hybridized at 68° C. for 1 h using Express Hyb solution (Clontech, Palo Alto, Calif., USA). A final wash stringency of 0.1×SSC, 0.1% SDS was performed at 50° C. Filters were deprobed in 0.5% SDS for 10 min at 100° C. and re-hybridized sequentially with cDNA probes to PBEF, IL-6 and IL-8 and finally with a human glyceraldehyde-3 phosphate dehydrogenase (G3PDH) cDNA probe (Clontech), as an internal standard. The Northern blot was quantitated with a Phospholmager (Amersham Pharmacia Biotech, Piscataway, N.Y.), using the G3PDH value for each sample to standardize sample loading. Results were expressed as a ratio to G3PDH. Statistical analysis was performed using the Tukey-Kramer multiple comparison test.\n(§2) The amnion-like epithelial (WISH) cells were obtained from American Type Culture Collection (ATCC# CCL-25) (ATCC, Manassas, Va.). WISH cells were cultured in Dulbecco's Modified Eagle Medium:Ham F-12 (DMEM:F12) (1:1) supplemented with 10% fetal bovine serum (FBS) (Life Technologies, Grand Island, N.Y.), penicillin (50 U/ml)-streptomycin (50 μg/ml) and incubated at 37° C. in 5% CO2/95% air. After reaching confluency, the cells were trypsinized and plated into 6-well culture dishes at a density of 1×10^5 cells in 4 ml media. After 48 h or when the cells reached 80% confluency, the growth medium was replaced with minimal media (0.5% FBS and 0.2% lactalbumin in DMEM:F12) and incubated for 12 h. Treatment of the cells began with addition of rhPBEF prepared in minimal media. The concentration of rhPBEF was determined using the BioRad protein assay and 1, 10 and 100 ng/ml was added to the cells for 4 and 24 h. Treatment was carried out in triplicate and each experiment was performed at least three times on different occasions. Controls received minimal media containing 0.5% bovine serum albumin (15 μl) in phosphate buffer saline (PBS). […]\nIn addition to fetal membrane explants, the amniotic epithelial cell line, WISH cells, were also used to study the effects of PBEF on the expression of IL-6 and IL-8. The expression of the IL-6 and IL-8 genes were quantitated by Northern blotting using total RNA isolated from the cells and calculated as the degree of upregulation (fold) compared to the respective control at each time (see FIGS. 4A-4C). […]"}, "[4]": {"test_system": "IL-8 protein in WISH cell culture media", "assay": "rhPBEF treatment of WISH cells, IL-8 protein in media by ELISA", "details": "rhPBEF 10 ng/ml, 4 h", "protocol": "as §2, with “h.” for “h. Treatment was carried out in triplicate and each experiment was performed at least three times on different occasions. Controls received minimal media containing 0.5% bovine serum albumin (15 μl) in phosphate buffer saline (PBS).”\nThe IL-8 enzyme-linked immunosorbent assay (ELISA) kit was purchased from R&D Systems (Minneapolis, Minn.) and used to determine the IL-8 protein concentration in the culture supernatants following the manufacturer's protocol. […] The basal levels of IL-6 protein in conditioned media of WISH cells were reported to be at the limit of sensitivity of ELISA (see Keelan et al., supra) and could not be considered reliable, therefore the levels of IL-6 protein were not measured."}, "[5]": {"test_system": "IL-8 gene expression in fetal membrane explants", "assay": "rhPBEF treatment of fetal membrane explants, IL-8 gene expression by Northern analysis", "details": "rhPBEF 100 ng/ml, 4 h, vs control", "from_the_text": "(§3) elective term Cesarean section without labor (n=7). For the Northern analysis of IL-6 and IL-8 gene expression after rhPBEF treatment, fetal membranes from elective term Cesarean sections before labor (37-40 weeks gestation, n=6) were collected and cut into 3×3 cm explants. None of the preterm or term patients or tissues had any clinical or histological signs of chorioamnionitis. The placentas and membranes were examined by a pathologist for histological evidence of infection using the criteria of Naeye (see Naeye R I. “Disorders of the placenta, fetus and neonate: diagnosis and clinical significance.” St Louis: C U Mosby; 1992. p.258) and all tissues with any sign of infection were excluded from this study.\nas §1\nEach fetal membrane was cut into several 3×3 cm explants. […]"}, "[6]": {"test_system": "IL-6 gene expression in fetal membrane explants", "assay": "rhPBEF treatment of fetal membrane explants, IL-6 gene expression by Northern analysis", "details": "rhPBEF 100 ng/ml, 4 h, vs control", "from_the_text": "as §3\nTotal RNA was extracted (see Chomzynski and Sacchi, supra) and MRNA prepared as previously described (see Aviv and Leder, supra). Samples of MRNA (10-20 μg) were electrophoresed, and the RNA transferred to a nylon membrane (Magna Graph, MSI, Westborough, Mass.) as previously described (see Ognjanovic et al., supra). The cDNA probes were labeled using the Random Primed DNA labeling kit and following the manufacturer's instructions (Invitrogen, Carlsbad, Calif.). […] The Northern blot was quantitated with a Phospholmager (Amersham Pharmacia Biotech, Piscataway, N.Y.), using the G3PDH value for each sample to standardize sample loading. Results were expressed as a ratio to G3PDH. […]"}},
  "note": "Entries after “also recorded” stand apart in the source; their conditions may differ.",
  "data": [
    {"molecule": "rhPBEF: recombinant human pre-B cell colony-enhancing factor produced in a bacterial system using pTrcHis2 vector (protein) MNPAAEAEFNILLATDSYKVTHYKQYPPNTSKVYSYFECREKKTENSKLRKVKYEETVFYGLQYILNKYLKGKVVTKEKIQEAKDVYKEHFQDDVFNEKGWNYILEKYDGHLPIEIKAVPEGFVIPRGNVLFTVENTDPECYWLTNWIETILVQSWYPITVATNSREQKKILAKYLLETSGNLDGLEYKLHDFGYRGVSSQETAGIGASAHLVNFKGTDTVAGLALIKKYYGTKDPVPGYSVPAAEHSTITAWGKDHEKDAFEHIVTQFSSVPVSVVSDSYDIYNACEKIWGEDLRHLIVSRSTQAPLIIRPDSGNPLDTVLKVLEILGKKFPVTENSKGYKLLPPYLRVIQGDGVDINTLQEIVEGMKQKMWSIENIAFGSGGGLLQKLTRDLLNCSFKCSYVVTNGLGINVFKDPVADPNKRSKKGRLSLHRTPAGNFVTLEEGKGDLEEYGQDLLHTVFKNGKVTKSYSFDEIRKNAQLNIELEAAHH", "values": [
      {"measurement": "increase in IL-8 gene expression", "setting": "[1]", "value": "absent"},
      {"measurement": "COX-2 gene expression", "setting": "[2]", "value": "stimulates; also recorded: significantly upregulated"},
      {"measurement": "GRO-γ gene expression", "setting": "[2]", "value": "significantly upregulated"},
      {"measurement": "IL-1β gene expression", "setting": "[2]", "value": "stimulates; also recorded: significantly upregulated"},
      {"measurement": "IL-6 gene expression", "setting": "[2]", "value": "stimulates; also recorded: significantly upregulated"},
      {"measurement": "MIP-1α gene expression", "setting": "[2]", "value": "significantly upregulated"},
      {"measurement": "MIP-1β gene expression", "setting": "[2]", "value": "significantly upregulated"},
      {"measurement": "TNF-α gene expression", "setting": "[2]", "value": "stimulates; also recorded: significantly upregulated"},
      {"measurement": "increase in IL-6 gene expression", "setting": "[3]; rhPBEF 1 ng/ml", "value": 15, "unit": "%"},
      {"measurement": "increase in IL-6 gene expression", "setting": "[3]; rhPBEF 10 ng/ml", "value": 29, "unit": "%"},
      {"measurement": "increase in IL-6 gene expression", "setting": "[3]; rhPBEF 100 ng/ml", "value": 44, "unit": "%"},
      {"measurement": "IL-6 gene expression, dose dependence", "setting": "[3]; rhPBEF 1, 10 and 100 ng/ml, 4h", "value": "dose-dependent increase"},
      {"measurement": "increase in secreted IL-8 (ELISA)", "setting": "[4]", "value": 15, "unit": "%"},
      {"measurement": "upregulation of IL-8 gene expression", "setting": "[5]", "value": 120, "unit": "%"},
      {"measurement": "upregulation of IL-8 gene expression", "setting": "[5]; listed as PBEF", "value": 120, "unit": "%"},
      {"measurement": "upregulation of IL-8 gene expression", "setting": "[5]; listed as RhPBEF", "value": "significant (p<0.05) increase"},
      {"measurement": "upregulation of IL-6 gene expression", "setting": "[6]", "value": 40, "unit": "%"}
    ]}
  ]
}
